Test [1] has as its target FcγIIIaV158F (human) (UniProt P08637). Kind of test: SPR (Biacore 8K), 25° C, antibody captured on nectin-4-coated chip, receptor ECD as analyte, steady-state analysis. (In general: Surface plasmon resonance follows binding to a sensor surface in real time, without labels.)
Test [2] addresses hFcγIIIa (human) (UniProt P08637). Described as above.
The target of test [3] is FcγIIIaV158F (human) (UniProt P08637). Nature of the test: SPR (Biacore 8K), 25° C, ADC captured on nectin-4-coated chip, receptor ECD as analyte, steady-state analysis.
Test [4] concerns the target hFcγIIIa (human) (UniProt P08637). The test is described as above.

From patent US20240010701A1 come the findings set out here.

As usually defined, the Kd is the constant that tells how readily two partners part at equilibrium. Read a low Kd as higher affinity. “DRUG B (enfortumab similar antibody that specifically binds human nectin-4)”: the Kd in the test with FcγIIIaV158F (human) [1] stood at 983 nM; with hFcγIIIa (human) [2], 316 nM.
On to “DRUG C (enfortumab vedotin similar antibody-drug conjugate)”, for which the Kd with FcγIIIaV158F (human) [3] was determined as 1200 nM; in the test with hFcγIIIa (human) [4], 429 nM.
